Measured values from US20240084003A1 (SIMCERE ZAIMING PHARMACEUTICAL, published 2024).

T1: human CD22-ECD-His protein (human, UniProt P20273 20-687)
T1 construct: Made in house in HEK293E; also called hCD22-ECD-His; recombinant human CD22-ECD His protein; not shown: His tag
T1 sequence: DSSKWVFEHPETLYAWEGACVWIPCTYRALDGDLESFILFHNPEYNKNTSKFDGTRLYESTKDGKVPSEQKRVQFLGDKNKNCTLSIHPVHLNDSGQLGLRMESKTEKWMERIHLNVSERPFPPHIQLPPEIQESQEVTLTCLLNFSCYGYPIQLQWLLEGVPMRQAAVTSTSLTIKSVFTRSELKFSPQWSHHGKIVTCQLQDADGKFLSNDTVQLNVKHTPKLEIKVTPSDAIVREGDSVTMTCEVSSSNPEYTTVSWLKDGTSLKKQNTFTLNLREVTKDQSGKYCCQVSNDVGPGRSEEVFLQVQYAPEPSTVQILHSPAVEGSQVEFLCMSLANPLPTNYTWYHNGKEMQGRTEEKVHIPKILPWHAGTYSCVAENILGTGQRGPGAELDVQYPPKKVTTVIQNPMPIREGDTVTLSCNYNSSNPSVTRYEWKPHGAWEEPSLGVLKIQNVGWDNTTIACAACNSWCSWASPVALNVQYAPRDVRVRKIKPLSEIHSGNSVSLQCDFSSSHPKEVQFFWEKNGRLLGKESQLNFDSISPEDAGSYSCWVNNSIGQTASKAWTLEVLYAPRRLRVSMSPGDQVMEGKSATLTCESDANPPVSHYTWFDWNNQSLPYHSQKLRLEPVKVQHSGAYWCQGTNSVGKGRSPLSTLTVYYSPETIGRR

T2: murine CD22 protein (ACROBiosystems, SI2-M52Ha) (murine, UniProt P35329 22-708)
T2 construct: extracellular domain; also called murine CD22-ECD; murine CD22-ECD-His
T2 sequence (looked up): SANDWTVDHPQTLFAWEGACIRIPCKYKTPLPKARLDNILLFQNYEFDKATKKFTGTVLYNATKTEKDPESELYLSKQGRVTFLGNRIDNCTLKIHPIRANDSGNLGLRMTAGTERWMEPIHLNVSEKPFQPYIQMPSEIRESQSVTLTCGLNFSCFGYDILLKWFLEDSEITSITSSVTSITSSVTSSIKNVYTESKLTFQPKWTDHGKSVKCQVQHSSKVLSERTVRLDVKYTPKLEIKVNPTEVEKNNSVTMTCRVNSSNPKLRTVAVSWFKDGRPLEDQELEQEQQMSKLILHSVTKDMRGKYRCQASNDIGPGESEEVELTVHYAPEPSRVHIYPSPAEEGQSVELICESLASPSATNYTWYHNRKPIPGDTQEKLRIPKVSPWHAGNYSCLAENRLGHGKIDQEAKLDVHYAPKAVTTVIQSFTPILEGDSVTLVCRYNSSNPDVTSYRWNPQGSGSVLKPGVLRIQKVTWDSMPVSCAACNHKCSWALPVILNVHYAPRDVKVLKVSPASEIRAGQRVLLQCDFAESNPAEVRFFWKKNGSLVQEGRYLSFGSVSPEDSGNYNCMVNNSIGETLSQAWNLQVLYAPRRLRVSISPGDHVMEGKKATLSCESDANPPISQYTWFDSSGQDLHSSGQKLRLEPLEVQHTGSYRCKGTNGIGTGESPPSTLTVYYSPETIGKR


Assays:
[1] = target: T1, human CD22-ECD-His protein; assay: ELISA, Ab 0.10 nM
Procedure, shortened: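 Plates coated overnight at 4 °C with 2 μg/mL CD22-ECD-His and blocked with 2% BSA in PBS. Chimeric antibody bound at 37 °C for 2 h, followed by HRP-labeled secondary antibody at 37 °C for 2 h. TMB read-out developed 30 min at room temperature and stopped with 1.0 N HCl.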

[2] = target: T2, murine CD22 protein (ACROBiosystems, …); assay: ELISA, murine CD22-ECD-His coated
Procedure, shortened: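 Plates were coated overnight at 4° C with 2 μg/mL CD22 protein in PBS and blocked with PBS + 2% BSA. Chimeric antibodies were incubated for 2 h at 37° C, then HRP-labelled secondary for 2 h at 37° C. Bound antibody was read by TMB colour development (30 min, RT) stopped with 1.0 N HCl.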

OD450 [1] | binding result [2] | Binder
1.8 OD450 | no binding (tested: 100 nM) | F2.180.16 (antibody, human IgG1, lambda, V domains shown, Human-murine chimeric IgG1, lambda) VH: EVKLVESGGGLVLPGGSLKISCAASGFTFSDYYMYWIRQTPDKRLEWVAYISNTGYSTFYPDSVKGRFTVSRDNAKNTLYLQMSRLQSEDTAMYYCARHGILYAMDYWGQGTSVTVSS VL: QPVLTQSSSASFSLGASAKLTCTLSSQYSTYTIGWYQQQPLKPPKYVMELKHDGSRHTGDGIPDRFSGSSSGADRYLSISNIQPEDEATYICGVGDTIKEQFMYVFGGGTKVTVLG
2.59 OD450 | no binding (tested: 100 nM) | F1.60.9 (antibody, human IgG1, kappa, V domains shown, Human-murine chimeric IgG1, kappa) VH: QVQLKESGPGLVAPSQSLSITCTVSGLSLNNYGVSWVRQPPGKGLEWLGVIWGDGSTNYHSALISRLSISKDNSKSQVFLKLNSLHTDDTATYYCAINWGDYWGQGTTLIVSS VL: DIKMTQSPSSMNASLGERVTITCKASQDINSYLSWFQQKPGKSPKILIYRANRLIDGVPSRFSGSGSGQDYSLTISSLEYEDMGIYYCLQYGVFPLTFGAGTKLELKR
